This note sets out measurements from patent US20120064106A1.

The target in this experiment is TLR5 on RAW 424 (TLR5+) cells. As to the kind of experiment: cell-based or functional assay.

In turn, “P. aeruginosa type B flagellin (strain PAO1), recombinant full-length (from UniProt P72151 1-488) (ligand)” yielded a TNF-α production by RAW 424 (TLR5+) cells, half-maximal stimulation of 40 µM.

“P. aeruginosa type A flagellin (strain PAK), recombinant full-length (from UniProt P21184 2-394) (ligand)” displayed a TNF-α production by RAW 424 (TLR5+) cells, half-maximal stimulation of 1.6e-05 µM.
